The text below walks through data of article PMC3744951 (Molecular Biology of the Cell, 2013).

This assay deals with GST-GSK3β fusion protein (human, UniProt P49841 1-420). Kind of assay: co-IP.
GST-GSK3β fusion protein, sequence (P49841 whole entry, the tested form may be a part): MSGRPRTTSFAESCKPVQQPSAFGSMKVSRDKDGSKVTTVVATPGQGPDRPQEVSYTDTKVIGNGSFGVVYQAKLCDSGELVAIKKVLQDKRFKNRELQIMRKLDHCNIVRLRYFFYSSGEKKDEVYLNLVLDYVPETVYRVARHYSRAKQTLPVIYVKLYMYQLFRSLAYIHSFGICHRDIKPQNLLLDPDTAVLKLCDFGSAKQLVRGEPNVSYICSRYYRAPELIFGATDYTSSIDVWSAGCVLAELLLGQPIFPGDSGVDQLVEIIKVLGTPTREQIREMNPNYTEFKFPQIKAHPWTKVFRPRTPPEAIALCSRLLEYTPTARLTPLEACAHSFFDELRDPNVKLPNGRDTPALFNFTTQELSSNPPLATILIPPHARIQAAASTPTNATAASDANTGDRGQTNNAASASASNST

B1: GST-FANCL fusion protein (natural protein, human, UniProt Q9NW38 1-375, looked up)
chain: MAVTEASLLRQCPLLLPQNRSKTVYEGFISAQGRDFHLRIVLPEDLQLKNARLLCSWQLRTILSGYHRIVQQRMQHSPDLMSFMMELKMLLEVALKNRQELYALPPPPQFYSSLIEEIGTLGWDKLVYADTCFSTIKLKAEDASGREHLITLKLKAKYPAESPDYFVDFPVPFCASWTPQSSLISIYSQFLAAIESLKAFWDVMDEIDEKTWVLEPEKPPRSATARRIALGNNVSINIEVDPRHPTMLPECFFLGADHVVKPLGIKLSRNIHLWDPENSVLQNLKDVLEIDFPARAILEKSDFTMDCGICYAYQLDGTIPDQVCDNSQCGQPFHQICLYEWLRGLLTSRQSFNIIFGECPYCSKPITLKMSGRKH
B1: the binding result is reported as “binds”.
